Data as given in US20190161551A1 (Regeneron, published 2019).

B1: human brain derived neurotrophic factor (ligand, UniProt P23560 129-247, looked up)
chain: HSDPARRGELSVCDSISEWVTAADKKTAVDMSGGTVTVLEKVPVSKGQLKQYFYETKCNPMGYTKEGCRGIDKRHWNSQCRTTQSYVRALTMDSKKRIGWRFIRIDTSCVCTLTIKRGR
B2: rat TrkB extracellular domain expressed with a C-terminal myc-myc-hexahistidine tag (receptor)
chain: CPMSCKCSTTRIWCTEPSPGIVAFPRLEPNSIDPENITEILIANQKRLEIINEDDVEAYVGLKNLTIVDSGLKFVAYKAFLKNGNLRHINFTRNKLTSLSRRHFRHLDLSDLILTGNPFTCSCDIMWLKTLQETKSSPDTQDLYCLNESSKNTPLANLQIPNCGLPSARLAAPNLTVEEGKSVTISCSVGGDPLPTLYWDVGNLVSKHMNETSHTQGSLRITNISSDDSGKQISCVAENLVGEDQDSVNLTVHFAPTITFLESPTSDHHWCIPFTVRGNPKPALQWFYNGAILNESKYICTKIHVTNHTEYHGCLQLDNPTHMNNGDYTLMAKNEYGKDERQISAHFMGRPGVDYETNPNYPEVLYEDWTTPTDIGDTTNKSNEIPSTDVADQTNREHEQKLISEEDLGGEQKLISEEDLHHHHHH
notes: also called rTrkB.mmH; rTRKB.mmH
B3: M2aM14178N (antibody, mouse IgG2a, V domains shown)
VH: EVQLVESGGGLVKPGGSLKLSCTASGFTFSSYAMSWVRQTPEKRLEWVANISDGGTYTYYPDNIKGRFTISRDNAKNNLYLQMSHLESEDTAMYYCIRGDVYYVRFAYWGQGTLVTVSA
VL: QAVVTQESALTTSPGETVTLTCRSSTGAVTSSNHANWVQEKPDHLFTGLIGGTNNRAPGVPARFSGSLIGDKAALTITGAQTEDEAIYFCALWHSNHWVFGGGTKLTVLG
notes: Anti-mouse TrkB antibody from hybridoma, mouse IgG2a Fc; also called surrogate anti-mouse TrkB antibody

Key:
[1] = target: T1, human TrkB expressed on HEK293/SRE-Luc/hTrkB cells (human, UniProt Q16620 32-822); experiment: cell-based or functional assay
[2] = target: T2, mouse TrkB extracellular domain fused to the transmembrane and cytoplasmic domains of human TrkB, expressed … (mouse; human, UniProt Q16620 431-822, limits assumed); experiment: cell-based or functional assay
[3] = target: T1, human TrkB expressed on …; experiment: cell-based or functional assay; remark: listed apart in the source
[4] = target: T2, mouse TrkB extracellular domain fused …; experiment: cell-based or functional assay; remark: listed apart in the source
[5] = target: B1; experiment: ELISA, dose-response of TrkB on plate-coated BDNF
From the text: FIG. 5. Consists of FIG. 5A and FIG. 5B which show the ability of anti-mouse TrkB monoclonal antibodies to block interaction between mouse or rat TrkB and its ligand BDNF (Brain Derived Neurotrophic Factor). ELISA-based methods were used to assess the binding of (FIG. 5A with two graphs) mouse TrkB.hFc and (FIG. 5B with two graphs) rat TrkB.mmh to plate coated BDNF in presence of a range of concentrations of Anti-mouse TrkB and isotype control mAbs. […] Molarity (M) indicates antibody concentration for mAbs. Error bars represent Standard Deviation.
(§1) Experiments were carried out using the following procedure. Human BDNF was coated at a concentration of 0.5 μg/mL (for blocking mouse TrkB.hFc interaction) or 0.3 μg/mL (for blocking rat TrkB.mmh interaction) in PBS on 96-well microtiter plate and incubated overnight at 4° C. […] In a 96-well dilution plate, 850 pM mouse TrkB.hFc or rat TrkB.mmh was mixed with the three-fold serially diluted anti-mouse TrkB antibodies and control antibody. The final antibody concentrations ranged from 1.69 pM to 100 nM. The protein-antibody mix was incubated at room temperature (RT) for 1 hour. […] Plate-bound mouse TrkB.hFc was detected with HRP-conjugated goat anti-human Fcγ fragment specific antibody (Jackson Immunoresearch) and rat TrkB.mmh was detected with HRP-conjugated anti-histidine antibody (Qiagen). […]

[6] = target: B1; experiment: ELISA: dose curve of rat TrkB.mmh binding to plate-coated BDNF, absorbance 450 nm
Protocol: as §1, with “hour. The pre-bound mix was then transferred in duplicates to microtiter plates coated with BDNF.” for “hour.”
The absorbance at 450 nm for each well was recorded and plotted as a function of the concentration of antibody. Data was analyzed in GraphPad Prism software using a four-parameter logistic equation over an 11-point dose response curve and IC₅₀ values were calculated. […] Percent blockade at maximum concentration of the antibody tested was calculated as an indicator of the ability of the antibodies to block the binding of TrkB to BDNF on the plate relative to the baseline of the assay. […]

[7] = target: T3, mouse TrkB extracellular domain expressed with a C-terminal myc-myc-hexahistidine tag (mouse, UniProt P15209 32-429); experiment: SPR Biacore T200, mAb captured (anti-mFc), 25C
T3 construct: also called mTrkB.mmH; mTRKB.mmH
Protocol: (§2) Equilibrium dissociation constants (KD values) for TrkB binding to purified anti-TrkB monoclonal antibodies were determined using a real-time surface plasmon resonance biosensor using a Biacore T200 instrument. All binding studies were performed in 10 mM Hepes pH 7.4, 150 mM NaCl, 3 mM EDTA, and 0.05% v/v Surfactant Tween-20 (HBS-ET running buffer) at 25° C. The Biacore sensor surface was first derivatized by amine coupling with rabbit anti-mouse Fc polyclonal antibody (GE Healthcare #BR-1008-38) to capture anti-TrkB monoclonal antibodies. Binding studies were performed on the following TrkB reagents; human TrkB extracellular domain expressed with a C-terminal myc-myc-hexahistidine tag (hTrkB.mmH; SEQ ID NO: 76; NP_001018074.1), mouse TrkB extracellular domain expressed with a C-terminal myc-myc-hexahistidine tag (mTRKB.mmH; SEQ ID NO: 79; NP_001020245), and rat TrkB extracellular domain expressed with a C-terminal myc-myc-hexahistidine tag (rTRKB.mmH; SEQ ID NO: 84; XP_002721319.1). […] Kinetic association (kₐ) and dissociation (kd) rate constants were determined by fitting the real-time binding sensorgrams to a 1:1 binding model with mass transport limitation using Scrubber 2.0c curve-fitting software. Binding dissociation equilibrium constants (KD) and dissociative half-lives (t½) were calculated from the kinetic rate constants as: […]

[8] = target: B2; experiment: SPR Biacore T200, mAb captured (anti-mFc), 25C
Protocol: as §2

[9] = target: T4, human TrkB extracellular domain expressed with a C-terminal myc-myc-hexahistidine tag (human, UniProt Q16620 32-430); experiment: SPR Biacore T200, mAb captured (anti-mFc), 25C
T4 construct: also called hTrkB.mmH; hTRKB.mmH
Protocol: as §2

[10] = target: T5, mouse TrkB.hFc (mouse); experiment: BLI Octet, captured mTrkB.hFc, 300 nM mAb, no ligand
T5 construct: also called mTrkB.hFc; mTrkB-hFc
Protocol: (§3) Blocking of anti-human TrkB or anti-mouse TrkB antibodies from binding to TrkB by BDNF or NT-4 was evaluated using a real-time bio-layer interferometry (BLI) based Octet HTX instrument. The entire study was performed in 10 mM HEPES pH 7.4, 300 mM NaCl, 3 mM EDTA, 1 mg/mL BSA, 0.02% NaN3 and 0.05% v/v Surfactant Tween-20 (HBS-EBT running buffer) at 25° C. All the samples were dispensed in a 384 tilted well plate and the plate was placed on the orbital shaker with the shake speed of 1000 rpm. hTrkB.mFc was captured on anti-mFc (AMC) Octet sensors while hTrkB.hFc or mTrkB.hFc were captured on anti-hFc (AHC) Octet sensors by dipping in wells containing 10 μg/mL of TrkB reagents for 2 minutes. hTrkB.mFc or hTrkB.hFc captured Octet biosensors were saturated by dipping in wells containing 20 nM of BDNF, hNT-4, or mNT-4 for 2 minutes followed by dipping Octet biosensors in wells containing 300 nM of different TrkB mAbs for 4 minutes. Binding of TrkB mAbs to the complex of TrkB and BDNF, hNT-4, or mNT-4 was determined using Scrubber 2.0c analysis software.

[11] = target: T5, mouse TrkB.hFc; experiment: BLI Octet, captured mTrkB.hFc, 300 nM mAb (BDNF run)
Protocol: (§4) Blocking of BDNF or NT-4 from binding to TrkB by anti-human TrkB or anti-mouse TrkB antibodies was evaluated using a real-time bio-layer interferometry (BLI) based Octet HTX instrument. The entire study was performed in 10 mM HEPES pH 7.4, 300 mM NaCl, 3 mM EDTA, 1 mg/mL BSA, 0.02% NaN3 and 0.05% v/v Surfactant Tween-20 (HBS-EBT running buffer) at 25° C. All the samples were dispensed in a 384 tilted well plate and the plate was placed on the orbital shaker with the shake speed of 1000 rpm. hTrkB.mFc was captured on anti-mFc (AMC) Octet sensors while hTrkB.hFc or mTrkB.hFc were captured on anti-hFc (AHC) Octet sensors by dipping in wells containing 10 μg/mL of TrkB reagents for 2 minutes. hTrkB.mFc or hTrkB.hFc captured Octet biosensors were saturated by dipping in wells containing 300 nM of different TrkB mAbs for 4 minutes followed by dipping Octet biosensors in wells containing 20 nM of BDNF, hNT-4, or mNT-4 for 2 minutes. Binding of BDNF, hNT-4, or mNT-4 to the complex of TrkB and different TrkB mAbs was determined using Scrubber 2.0c analysis software.

[12] = target: T5, mouse TrkB.hFc; experiment: BLI Octet, captured mTrkB.hFc, 300 nM mAb (NT-4 run)
Protocol: as §4

[13] = target: T5, mouse TrkB.hFc; experiment: BLI Octet, captured mTrkB.hFc saturated with BDNF, 300 nM mAb
Protocol: as §3

[14] = target: T5, mouse TrkB.hFc; experiment: BLI Octet, captured mTrkB.hFc saturated with mNT-4, 300 nM mAb
Protocol: as §3

[15] = target: B2; experiment: blocking ELISA, rat TrkB.mmh pre-mixed with mAb, plate-coated BDNF
Protocol: (§5) Experiments were carried out using the following procedure. Human BDNF was coated at a concentration of 0.5 μg/mL (for blocking mouse TrkB.hFc interaction) or 0.3 μg/mL (for blocking rat TrkB.mmh interaction) in PBS on 96-well microtiter plate and incubated overnight at 4° C. […] In a 96-well dilution plate, 850 pM mouse TrkB.hFc or rat TrkB.mmh was mixed with the three-fold serially diluted anti-mouse TrkB antibodies and control antibody. The final antibody concentrations ranged from 1.69 pM to 100 nM. The protein-antibody mix was incubated at room temperature (RT) for 1 hour. The pre-bound mix was then transferred in duplicates to microtiter plates coated with BDNF. A control containing assay buffer alone was included to calculate the baseline of the assay. The ELISA plates were incubated at RT for 1 hour and then washed with plate washing solution. Plate-bound mouse TrkB.hFc was detected with HRP-conjugated goat anti-human Fcγ fragment specific antibody (Jackson Immunoresearch) and rat TrkB.mmh was detected with HRP-conjugated anti-histidine antibody (Qiagen). The plates were incubated with detection antibody for 1 hour at RT and then washed with plate washing solution. The assay plates were developed with TMB colorimetric substrates according to the manufacturer's recommended procedure.
(§6) The absorbance at 450 nm for each well was recorded and plotted as a function of the concentration of antibody. Data was analyzed in GraphPad Prism software using a four-parameter logistic equation over an 11-point dose response curve and IC₅₀ values were calculated. […] Percent blockade at maximum concentration of the antibody tested was calculated as an indicator of the ability of the antibodies to block the binding of TrkB to BDNF on the plate relative to the baseline of the assay. Binding signal of 850 pM mouse or rat TrkB in absence of the antibody was defined as 100% binding or 0% blocking. The baseline signal of assay buffer alone was defined as 0% binding or 100% blocking.

[16] = target: T5, mouse TrkB.hFc; experiment: blocking ELISA, mouse TrkB.hFc pre-mixed with mAb, plate-coated BDNF
Protocol: as §5, §6

T1 sequence (Q16620 32-822): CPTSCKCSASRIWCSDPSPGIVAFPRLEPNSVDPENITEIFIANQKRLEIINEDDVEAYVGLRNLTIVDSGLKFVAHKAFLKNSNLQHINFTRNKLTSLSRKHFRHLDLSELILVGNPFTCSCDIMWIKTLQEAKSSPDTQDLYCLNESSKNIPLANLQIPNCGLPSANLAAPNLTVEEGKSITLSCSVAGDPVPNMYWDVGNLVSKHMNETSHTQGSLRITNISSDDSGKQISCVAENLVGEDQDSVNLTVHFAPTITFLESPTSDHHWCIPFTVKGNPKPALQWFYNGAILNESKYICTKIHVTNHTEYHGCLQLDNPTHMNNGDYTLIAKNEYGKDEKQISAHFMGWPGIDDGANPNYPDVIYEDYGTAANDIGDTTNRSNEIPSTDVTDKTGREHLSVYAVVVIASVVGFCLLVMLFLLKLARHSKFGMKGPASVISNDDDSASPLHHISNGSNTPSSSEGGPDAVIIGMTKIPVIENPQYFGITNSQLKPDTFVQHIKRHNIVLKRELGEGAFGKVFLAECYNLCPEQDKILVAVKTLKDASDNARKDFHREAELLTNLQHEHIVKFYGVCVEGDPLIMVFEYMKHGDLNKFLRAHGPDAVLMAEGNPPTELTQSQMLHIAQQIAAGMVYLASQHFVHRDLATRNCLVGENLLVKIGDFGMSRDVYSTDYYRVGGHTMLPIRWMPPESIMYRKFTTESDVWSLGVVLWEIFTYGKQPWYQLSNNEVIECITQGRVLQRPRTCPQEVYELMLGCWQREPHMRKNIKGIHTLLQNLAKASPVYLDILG
T2 sequence (Q16620 other isoform, or with tags, fused parts or gaps limits assumed, form in doubt): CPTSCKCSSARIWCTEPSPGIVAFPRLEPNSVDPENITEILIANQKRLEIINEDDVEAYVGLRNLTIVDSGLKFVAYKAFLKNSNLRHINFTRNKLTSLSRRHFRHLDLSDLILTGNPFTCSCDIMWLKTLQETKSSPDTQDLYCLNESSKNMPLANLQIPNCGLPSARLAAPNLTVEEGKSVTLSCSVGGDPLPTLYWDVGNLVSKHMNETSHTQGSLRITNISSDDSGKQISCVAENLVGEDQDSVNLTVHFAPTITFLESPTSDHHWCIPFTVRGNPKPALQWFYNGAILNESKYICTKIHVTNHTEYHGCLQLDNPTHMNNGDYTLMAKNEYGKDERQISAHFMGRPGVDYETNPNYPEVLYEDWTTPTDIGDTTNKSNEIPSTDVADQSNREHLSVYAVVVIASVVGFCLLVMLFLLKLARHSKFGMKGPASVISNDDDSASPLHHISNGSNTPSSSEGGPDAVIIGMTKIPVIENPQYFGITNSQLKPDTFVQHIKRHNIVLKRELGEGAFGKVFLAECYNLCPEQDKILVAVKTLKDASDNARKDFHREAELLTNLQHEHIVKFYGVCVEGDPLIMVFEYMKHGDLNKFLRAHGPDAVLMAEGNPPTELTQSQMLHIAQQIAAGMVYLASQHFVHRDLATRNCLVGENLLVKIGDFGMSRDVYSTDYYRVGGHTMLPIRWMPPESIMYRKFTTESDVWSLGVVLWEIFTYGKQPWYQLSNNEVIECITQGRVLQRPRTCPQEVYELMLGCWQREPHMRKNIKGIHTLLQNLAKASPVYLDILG
T5 sequence (chain, as listed by the source limits assumed): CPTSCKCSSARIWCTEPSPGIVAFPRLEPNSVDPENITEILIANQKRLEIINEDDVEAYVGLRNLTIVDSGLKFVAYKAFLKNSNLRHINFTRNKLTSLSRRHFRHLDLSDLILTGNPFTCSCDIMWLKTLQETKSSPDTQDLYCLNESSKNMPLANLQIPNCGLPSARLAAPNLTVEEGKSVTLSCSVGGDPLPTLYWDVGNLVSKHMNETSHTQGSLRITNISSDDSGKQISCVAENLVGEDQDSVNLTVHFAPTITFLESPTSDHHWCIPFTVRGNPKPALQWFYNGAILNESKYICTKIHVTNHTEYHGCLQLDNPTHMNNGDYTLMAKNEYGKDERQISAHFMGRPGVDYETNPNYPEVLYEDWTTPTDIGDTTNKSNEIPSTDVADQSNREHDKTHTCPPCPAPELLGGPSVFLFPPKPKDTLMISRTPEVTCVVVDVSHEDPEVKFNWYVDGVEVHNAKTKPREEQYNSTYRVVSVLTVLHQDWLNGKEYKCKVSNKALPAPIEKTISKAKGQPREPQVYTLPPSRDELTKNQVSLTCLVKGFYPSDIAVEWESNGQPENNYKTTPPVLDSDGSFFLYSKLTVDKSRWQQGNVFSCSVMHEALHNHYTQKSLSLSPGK

Binder: B1
BDNF EC50 (M), SRE-luciferase [1]: 1e-10 M
BDNF EC50 (M), SRE-luciferase [2]: 7.4e-11 M
BDNF EC50 (M), SRE-luciferase (run of the 100 pM BDNF columns) [3]: 1e-10 M
BDNF EC50 (M), SRE-luciferase (run of the No BDNF columns) [3]: 1.3e-10 M
BDNF EC50 (M), SRE-luciferase (run of the 100 pM BDNF columns) [4]: 1.1e-10 M
BDNF EC50 (M), SRE-luciferase (run of the No BDNF columns) [4]: 7.4e-11 M

Binder: B2
EC50 [5]: 2.2 nM
EC50 [6]: 2.22 nM

Binder: B3
Activation (%), SRE-luciferase, 100 pM BDNF [3]: 52%
Activation (%), SRE-luciferase, No BDNF [3]: 0%
Activation (%), SRE-luciferase, 100 pM BDNF [4]: 67%
Activation (%), SRE-luciferase, No BDNF [4]: 76%
EC50 (M), SRE-luciferase, 100 pM BDNF [4]: 1e-10 M
EC50 (M), SRE-luciferase, No BDNF [4]: 1.9e-10 M
90 nM TrkB.mmH Bound (RU) [7]: 12 RU
Kd [7]: 2.39 nM
koff [7]: 0.000247 s⁻¹
kon [7]: 103000 M⁻¹ s⁻¹
t½ [7]: 47 min
90 nM rTrkB.mmH Bound (RU) [8]: 11 RU
Kd [8]: 2.56 nM
koff [8]: 0.00023 s⁻¹
kon [8]: 90000 M⁻¹ s⁻¹
t½ [8]: 50 min
90nM hTrkB.mmH Bound (RU) [9]: -1 RU
antibody Binding (nm) [10]: 0.47 nm
mAb Binding (nm) [11]: 0.47 nm
mAb Binding (nm) [12]: 0.47 nm
antibody Binding (nm) [13]: 0.35 nm
antibody Binding (nm) [14]: 0.41 nm
% Blockade with 100 nM antibody [15]: 89.5%
IC50 [15]: 0.184 nM
% Blockade with 100 nM antibody [16]: 84.4%
IC50 [16]: 0.426 nM
